Measured values: US20240270846A1 (published 2024)

B1: GLS3000 V94W one-arm antibody (antibody, human IgG1, kappa, L234A L235A, N297A, name in Kabat numbering)
light: DIVMTQSPLSLPVTPGEPASISCRSSQSLVHSNRNTYLHWYQQKPGQAPRLLIYKVSNRFSGVPDRFSGSGSGTDFTLKISRVEAEDVGVYYCGQGTQWPYTFGQGTKLEIKRTVAAPSVFIFPPSDEQLKSGTASVVCLLNNFYPREAKVQWKVDNALQSGNSQESVTEQDSKDSTYSLSSTLTLSKADYEKHKVYACEVTHQGLSSPVTKSFNRGEC
heavy: QVQLVESGGGVVQPGRSLRLSCAASGFTFSNAWMHWVRQAPGKGLEWVAQIKAKSNNYATYYAESVKGRFTISRDDSKNSLYLQMNSLKTEDTAVYYCRYVHYGAYYGVDAWGQGTTVTVSSASTKGPSVFPLAPSSKSTSGGTAALGCLVKDYFPEPVTVSWNSGALTSGVHTFPAVLQSSGLYSLSSVVTVPSSSLGTQTYICNVNHKPSNTKVDKKVEPKSCDKTHTCPPCPAPEAAGGPSVFLFPPKPKDTLMISRTPEVTCVVVDVSHEDPEVKFNWYVDGVEVHNAKTKPREEQYASTYRVVSVLTVLHQDWLNGKEYKCKVSNKALPAPIEKTISKAKGQPREPQVYTLPPSRCELTKNQVSLSCAVKGFYPSDIAVEWESNGQPENNYKTTPPVLDSDGSFFLVSKLTVDKSRWQQGNVFSCSVMHEALHNHYTQKSLSLSPDYKDDDDK
chain: EPKSSDKTHTCPPCPAPELLGGPSVFLFPPKPKDTLMISRTPEVTCVVVDVSHEDPEVKFNWYVDGVEVHNAKTKPREEQYNSTYRVVSVLTVLHQDWLNGKEYKCKVSNKALPAPIEKTISKAKGQPREPQVCTLPPSRDELTKNQVSLWCLVKGFYPSDIAVEWESNGQPENNYKTTPPVLDSDGSFFLYSKLTVDKSRWQQGNVFSCSVMHEALHNRYTQKSLSLSP
B2: GLS3000 Y96E one-arm antibody (antibody, human IgG1, kappa, L234A L235A, N297A, name in Kabat numbering)
light: DIVMTQSPLSLPVTPGEPASISCRSSQSLVHSNRNTYLHWYQQKPGQAPRLLIYKVSNRFSGVPDRFSGSGSGTDFTLKISRVEAEDVGVYYCGQGTQVPETFGQGTKLEIKRTVAAPSVFIFPPSDEQLKSGTASVVCLLNNFYPREAKVQWKVDNALQSGNSQESVTEQDSKDSTYSLSSTLTLSKADYEKHKVYACEVTHQGLSSPVTKSFNRGEC
heavy: QVQLVESGGGVVQPGRSLRLSCAASGFTFSNAWMHWVRQAPGKGLEWVAQIKAKSNNYATYYAESVKGRFTISRDDSKNSLYLQMNSLKTEDTAVYYCRYVHYGAYYGVDAWGQGTTVTVSSASTKGPSVFPLAPSSKSTSGGTAALGCLVKDYFPEPVTVSWNSGALTSGVHTFPAVLQSSGLYSLSSVVTVPSSSLGTQTYICNVNHKPSNTKVDKKVEPKSCDKTHTCPPCPAPEAAGGPSVFLFPPKPKDTLMISRTPEVTCVVVDVSHEDPEVKFNWYVDGVEVHNAKTKPREEQYASTYRVVSVLTVLHQDWLNGKEYKCKVSNKALPAPIEKTISKAKGQPREPQVYTLPPSRCELTKNQVSLSCAVKGFYPSDIAVEWESNGQPENNYKTTPPVLDSDGSFFLVSKLTVDKSRWQQGNVFSCSVMHEALHNHYTQKSLSLSPDYKDDDDK
chain: EPKSSDKTHTCPPCPAPELLGGPSVFLFPPKPKDTLMISRTPEVTCVVVDVSHEDPEVKFNWYVDGVEVHNAKTKPREEQYNSTYRVVSVLTVLHQDWLNGKEYKCKVSNKALPAPIEKTISKAKGQPREPQVCTLPPSRDELTKNQVSLWCLVKGFYPSDIAVEWESNGQPENNYKTTPPVLDSDGSFFLYSKLTVDKSRWQQGNVFSCSVMHEALHNRYTQKSLSLSP
B3: GLS3000 Y32F one-arm antibody (antibody, human IgG1, kappa, L234A L235A, N297A, name in Kabat numbering)
light: DIVMTQSPLSLPVTPGEPASISCRSSQSLVHSNRNTFLHWYQQKPGQAPRLLIYKVSNRFSGVPDRFSGSGSGTDFTLKISRVEAEDVGVYYCGQGTQVPYTFGQGTKLEIKRTVAAPSVFIFPPSDEQLKSGTASVVCLLNNFYPREAKVQWKVDNALQSGNSQESVTEQDSKDSTYSLSSTLTLSKADYEKHKVYACEVTHQGLSSPVTKSFNRGEC
heavy: QVQLVESGGGVVQPGRSLRLSCAASGFTFSNAWMHWVRQAPGKGLEWVAQIKAKSNNYATYYAESVKGRFTISRDDSKNSLYLQMNSLKTEDTAVYYCRYVHYGAYYGVDAWGQGTTVTVSSASTKGPSVFPLAPSSKSTSGGTAALGCLVKDYFPEPVTVSWNSGALTSGVHTFPAVLQSSGLYSLSSVVTVPSSSLGTQTYICNVNHKPSNTKVDKKVEPKSCDKTHTCPPCPAPEAAGGPSVFLFPPKPKDTLMISRTPEVTCVVVDVSHEDPEVKFNWYVDGVEVHNAKTKPREEQYASTYRVVSVLTVLHQDWLNGKEYKCKVSNKALPAPIEKTISKAKGQPREPQVYTLPPSRCELTKNQVSLSCAVKGFYPSDIAVEWESNGQPENNYKTTPPVLDSDGSFFLVSKLTVDKSRWQQGNVFSCSVMHEALHNHYTQKSLSLSPDYKDDDDK
chain: EPKSSDKTHTCPPCPAPELLGGPSVFLFPPKPKDTLMISRTPEVTCVVVDVSHEDPEVKFNWYVDGVEVHNAKTKPREEQYNSTYRVVSVLTVLHQDWLNGKEYKCKVSNKALPAPIEKTISKAKGQPREPQVCTLPPSRDELTKNQVSLWCLVKGFYPSDIAVEWESNGQPENNYKTTPPVLDSDGSFFLYSKLTVDKSRWQQGNVFSCSVMHEALHNRYTQKSLSLSP
B4: GLS3000 Y96D one-arm antibody (antibody, human IgG1, kappa, L234A L235A, N297A, name in Kabat numbering)
light: DIVMTQSPLSLPVTPGEPASISCRSSQSLVHSNRNTYLHWYQQKPGQAPRLLIYKVSNRFSGVPDRFSGSGSGTDFTLKISRVEAEDVGVYYCGQGTQVPDTFGQGTKLEIKRTVAAPSVFIFPPSDEQLKSGTASVVCLLNNFYPREAKVQWKVDNALQSGNSQESVTEQDSKDSTYSLSSTLTLSKADYEKHKVYACEVTHQGLSSPVTKSFNRGEC
heavy: QVQLVESGGGVVQPGRSLRLSCAASGFTFSNAWMHWVRQAPGKGLEWVAQIKAKSNNYATYYAESVKGRFTISRDDSKNSLYLQMNSLKTEDTAVYYCRYVHYGAYYGVDAWGQGTTVTVSSASTKGPSVFPLAPSSKSTSGGTAALGCLVKDYFPEPVTVSWNSGALTSGVHTFPAVLQSSGLYSLSSVVTVPSSSLGTQTYICNVNHKPSNTKVDKKVEPKSCDKTHTCPPCPAPEAAGGPSVFLFPPKPKDTLMISRTPEVTCVVVDVSHEDPEVKFNWYVDGVEVHNAKTKPREEQYASTYRVVSVLTVLHQDWLNGKEYKCKVSNKALPAPIEKTISKAKGQPREPQVYTLPPSRCELTKNQVSLSCAVKGFYPSDIAVEWESNGQPENNYKTTPPVLDSDGSFFLVSKLTVDKSRWQQGNVFSCSVMHEALHNHYTQKSLSLSPDYKDDDDK
chain: EPKSSDKTHTCPPCPAPELLGGPSVFLFPPKPKDTLMISRTPEVTCVVVDVSHEDPEVKFNWYVDGVEVHNAKTKPREEQYNSTYRVVSVLTVLHQDWLNGKEYKCKVSNKALPAPIEKTISKAKGQPREPQVCTLPPSRDELTKNQVSLWCLVKGFYPSDIAVEWESNGQPENNYKTTPPVLDSDGSFFLYSKLTVDKSRWQQGNVFSCSVMHEALHNRYTQKSLSLSP
B5: GLS3000 Y96F one-arm antibody (antibody, human IgG1, kappa, L234A L235A, N297A, name in Kabat numbering)
light: DIVMTQSPLSLPVTPGEPASISCRSSQSLVHSNRNTYLHWYQQKPGQAPRLLIYKVSNRFSGVPDRFSGSGSGTDFTLKISRVEAEDVGVYYCGQGTQVPFTFGQGTKLEIKRTVAAPSVFIFPPSDEQLKSGTASVVCLLNNFYPREAKVQWKVDNALQSGNSQESVTEQDSKDSTYSLSSTLTLSKADYEKHKVYACEVTHQGLSSPVTKSFNRGEC
heavy: QVQLVESGGGVVQPGRSLRLSCAASGFTFSNAWMHWVRQAPGKGLEWVAQIKAKSNNYATYYAESVKGRFTISRDDSKNSLYLQMNSLKTEDTAVYYCRYVHYGAYYGVDAWGQGTTVTVSSASTKGPSVFPLAPSSKSTSGGTAALGCLVKDYFPEPVTVSWNSGALTSGVHTFPAVLQSSGLYSLSSVVTVPSSSLGTQTYICNVNHKPSNTKVDKKVEPKSCDKTHTCPPCPAPEAAGGPSVFLFPPKPKDTLMISRTPEVTCVVVDVSHEDPEVKFNWYVDGVEVHNAKTKPREEQYASTYRVVSVLTVLHQDWLNGKEYKCKVSNKALPAPIEKTISKAKGQPREPQVYTLPPSRCELTKNQVSLSCAVKGFYPSDIAVEWESNGQPENNYKTTPPVLDSDGSFFLVSKLTVDKSRWQQGNVFSCSVMHEALHNHYTQKSLSLSPDYKDDDDK
chain: EPKSSDKTHTCPPCPAPELLGGPSVFLFPPKPKDTLMISRTPEVTCVVVDVSHEDPEVKFNWYVDGVEVHNAKTKPREEQYNSTYRVVSVLTVLHQDWLNGKEYKCKVSNKALPAPIEKTISKAKGQPREPQVCTLPPSRDELTKNQVSLWCLVKGFYPSDIAVEWESNGQPENNYKTTPPVLDSDGSFFLYSKLTVDKSRWQQGNVFSCSVMHEALHNRYTQKSLSLSP
B6: GLS3000 Y32P one-arm antibody (antibody, human IgG1, kappa, L234A L235A, N297A, name in Kabat numbering)
light: DIVMTQSPLSLPVTPGEPASISCRSSQSLVHSNRNTPLHWYQQKPGQAPRLLIYKVSNRFSGVPDRFSGSGSGTDFTLKISRVEAEDVGVYYCGQGTQVPYTFGQGTKLEIKRTVAAPSVFIFPPSDEQLKSGTASVVCLLNNFYPREAKVQWKVDNALQSGNSQESVTEQDSKDSTYSLSSTLTLSKADYEKHKVYACEVTHQGLSSPVTKSFNRGEC
heavy: QVQLVESGGGVVQPGRSLRLSCAASGFTFSNAWMHWVRQAPGKGLEWVAQIKAKSNNYATYYAESVKGRFTISRDDSKNSLYLQMNSLKTEDTAVYYCRYVHYGAYYGVDAWGQGTTVTVSSASTKGPSVFPLAPSSKSTSGGTAALGCLVKDYFPEPVTVSWNSGALTSGVHTFPAVLQSSGLYSLSSVVTVPSSSLGTQTYICNVNHKPSNTKVDKKVEPKSCDKTHTCPPCPAPEAAGGPSVFLFPPKPKDTLMISRTPEVTCVVVDVSHEDPEVKFNWYVDGVEVHNAKTKPREEQYASTYRVVSVLTVLHQDWLNGKEYKCKVSNKALPAPIEKTISKAKGQPREPQVYTLPPSRCELTKNQVSLSCAVKGFYPSDIAVEWESNGQPENNYKTTPPVLDSDGSFFLVSKLTVDKSRWQQGNVFSCSVMHEALHNHYTQKSLSLSPDYKDDDDK
chain: EPKSSDKTHTCPPCPAPELLGGPSVFLFPPKPKDTLMISRTPEVTCVVVDVSHEDPEVKFNWYVDGVEVHNAKTKPREEQYNSTYRVVSVLTVLHQDWLNGKEYKCKVSNKALPAPIEKTISKAKGQPREPQVCTLPPSRDELTKNQVSLWCLVKGFYPSDIAVEWESNGQPENNYKTTPPVLDSDGSFFLYSKLTVDKSRWQQGNVFSCSVMHEALHNRYTQKSLSLSP

Target: T1, CD3 epsilon homodimer protein (UniProt P07766 23-126)
T1 construct: Construct of the homodimer is not described; also called CD3 (CD3 epsilon)
T1 sequence (P07766 23-126): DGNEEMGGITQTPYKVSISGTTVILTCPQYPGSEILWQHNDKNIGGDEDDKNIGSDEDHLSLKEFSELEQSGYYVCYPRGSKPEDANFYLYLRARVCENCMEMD
Test: SPR Biacore T200, CD3e homodimer on chip, antibody analyte;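 further: CD3 epsilon homodimer amine-coupled on CM4 sensor chip, antibodies injected as analyte at 25 °C in HBS-EP+, ratio ≥0.8 taken as binding retained versus unaltered parent antibody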

Binder	ratio of amounts bound (altered form/GLS3000)
B1	0.58
B2	0.17
B3	0.29
B4	0.17
B5	1.17
B6	0.24
